Values quoted from earlier work in patent US20090074843A1, “Use of epi-hne 1-4” (priority 2004, published 2009).

T1: human neutrophil elastase (Homo sapiens, UniProt P08246)
T1 sequence (P08246 30-267): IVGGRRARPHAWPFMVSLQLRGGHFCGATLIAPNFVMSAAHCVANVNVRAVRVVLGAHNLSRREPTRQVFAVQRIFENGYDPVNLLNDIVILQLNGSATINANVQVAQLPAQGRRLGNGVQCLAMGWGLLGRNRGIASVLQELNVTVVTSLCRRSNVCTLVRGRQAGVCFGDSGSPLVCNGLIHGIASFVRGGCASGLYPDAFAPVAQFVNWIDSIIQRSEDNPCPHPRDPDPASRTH


Experiments:
[1] = chloramineT, up to 50 mol-equivalents
Human Plasma Factor Xa = Human Plasma Factor Xa (Homo sapiens, UniProt P00742); settings: Human Plasma Factor Xa vs Elastase
[2] = test system: Human Pancreatic Chymotrypsin; settings: Human Pancreatic Chymotrypsin vs Elastase
Human Serum Plasmin = Human Serum Plasmin (Homo sapiens, UniProt P00747); settings: Human Serum Plasmin vs Elastase
Human Urine Urokinase = Human Urine Urokinase (Homo sapiens, UniProt P00749); settings: Human Urine Urokinase vs Elastase
Kallikrein = Kallikrein (Homo sapiens, UniProt P03952); settings: Human Serum Kallikrein vs Elastase
Thrombin = Thrombin (Homo sapiens, UniProt P00734); settings: Human Serum Thrombin vs Elastase
[3] = target: T1, human neutrophil elastase; settings: comparison values

Sequence of Human Serum Plasmin (P00747 581-810 limits assumed): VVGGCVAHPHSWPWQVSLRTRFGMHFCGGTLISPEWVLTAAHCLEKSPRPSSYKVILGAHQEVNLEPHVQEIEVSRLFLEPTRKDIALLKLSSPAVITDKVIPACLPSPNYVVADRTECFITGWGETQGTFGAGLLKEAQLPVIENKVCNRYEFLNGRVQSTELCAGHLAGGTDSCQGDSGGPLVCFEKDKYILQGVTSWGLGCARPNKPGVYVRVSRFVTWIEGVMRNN
Sequence of Human Serum Plasmin (P00747 98-580 partner limits assumed): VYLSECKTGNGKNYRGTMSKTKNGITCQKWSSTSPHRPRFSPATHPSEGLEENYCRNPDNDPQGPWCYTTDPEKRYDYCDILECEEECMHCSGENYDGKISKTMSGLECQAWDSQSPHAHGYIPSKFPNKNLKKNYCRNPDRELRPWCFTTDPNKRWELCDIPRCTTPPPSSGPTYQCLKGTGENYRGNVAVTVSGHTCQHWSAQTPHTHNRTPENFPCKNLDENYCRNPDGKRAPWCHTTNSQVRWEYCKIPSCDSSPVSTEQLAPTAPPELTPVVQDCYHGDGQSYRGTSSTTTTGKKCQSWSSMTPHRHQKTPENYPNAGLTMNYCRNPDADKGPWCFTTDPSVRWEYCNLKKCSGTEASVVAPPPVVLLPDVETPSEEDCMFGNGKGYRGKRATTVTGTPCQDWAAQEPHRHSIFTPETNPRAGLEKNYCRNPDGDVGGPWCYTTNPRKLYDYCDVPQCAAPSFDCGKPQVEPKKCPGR
Sequence of Kallikrein (P03952 391-638 limits assumed): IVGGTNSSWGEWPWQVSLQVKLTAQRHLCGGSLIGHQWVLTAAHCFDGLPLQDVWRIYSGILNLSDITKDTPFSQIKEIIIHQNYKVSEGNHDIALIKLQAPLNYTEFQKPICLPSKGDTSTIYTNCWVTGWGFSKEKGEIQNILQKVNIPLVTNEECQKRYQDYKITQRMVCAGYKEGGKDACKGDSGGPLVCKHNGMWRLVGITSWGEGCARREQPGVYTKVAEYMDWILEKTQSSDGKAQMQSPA
Sequence of Kallikrein (P03952 20-390 limits assumed): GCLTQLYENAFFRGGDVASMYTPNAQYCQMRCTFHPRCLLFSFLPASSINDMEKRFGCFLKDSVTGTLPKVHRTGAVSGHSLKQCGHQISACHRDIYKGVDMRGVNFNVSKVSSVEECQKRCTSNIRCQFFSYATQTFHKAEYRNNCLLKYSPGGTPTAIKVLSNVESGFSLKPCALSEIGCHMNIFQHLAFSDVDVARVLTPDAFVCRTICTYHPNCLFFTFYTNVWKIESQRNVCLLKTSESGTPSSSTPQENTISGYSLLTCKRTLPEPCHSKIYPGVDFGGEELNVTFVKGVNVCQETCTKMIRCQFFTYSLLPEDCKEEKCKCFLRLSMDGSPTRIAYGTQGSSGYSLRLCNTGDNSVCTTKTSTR
Sequence of Human Plasma Factor Xa (P00742 235-488 limits assumed): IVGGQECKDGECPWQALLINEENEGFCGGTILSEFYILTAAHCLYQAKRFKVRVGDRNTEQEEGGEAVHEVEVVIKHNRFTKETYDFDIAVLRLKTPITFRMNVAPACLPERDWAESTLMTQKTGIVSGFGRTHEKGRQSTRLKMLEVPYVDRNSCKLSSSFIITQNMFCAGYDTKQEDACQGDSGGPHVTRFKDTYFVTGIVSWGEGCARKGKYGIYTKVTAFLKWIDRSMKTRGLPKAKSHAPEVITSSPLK
Sequence of Human Plasma Factor Xa (P00742 41-179 partner limits assumed): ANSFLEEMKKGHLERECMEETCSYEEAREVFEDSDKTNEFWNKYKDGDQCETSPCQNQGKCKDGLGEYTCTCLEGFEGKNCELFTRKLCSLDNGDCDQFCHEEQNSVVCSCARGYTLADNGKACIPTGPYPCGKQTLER

selectivity in Ki values (Human Plasma Factor Xa)	selectivity in Ki values [2]	selectivity in Ki values (Human Serum Plasmin)	selectivity in Ki values (Human Urine Urokinase)	selectivity in Ki values (Kallikrein)	selectivity in Ki values (Thrombin)	Kd [3] [nM]	Molecule	resistance to oxidation (retention of activity) [1]
–	–	–	–	–	–	–	AAT: naturally occurring elastase inhibitor, serum protease inhibitor [reference compound]	destroy the activity
more than 10^6	more than 10^6	more than 10^6	more than 10^6	more than 10^6	more than 10^6	–	EPI-HNE4: 56 amino acid protein (SEQ ID NO: 1) derived from second Kunitz type domain of human inter-alpha-inhibitor light chain (ITI-D2); elastase inhibitor (EACNLPIVRGPCIAFFPRWAFDAVKGKCVLFPYGGCQGNGNKFYSEKECREYCGVP; P. pastoris; EPI-HNE4 N-terminal modified to facilitate secretion)	–
–	–	–	–	–	–	100	SLPI: naturally occurring elastase inhibitor, serum protease inhibitor (protein, UniProt P03973 26-132, looked up) Antileukoproteinase: SGKSFKAGVCPPKKSAQCLRYKKPECQSDWQCPGKKRCCPDTCGIKCLDPVDTPNPTRRKPGKCPVTYGQCLMLNPPNFCEMDGQCKRDLKCCMGMCGKSCVSPVKA	destroy the activity
